The text below walks through data of publication PMC5155159.

Data set [1] concerns the target T1, Dicer TN (catalytically inactive), without ectopic TRBP;TRBP full length (D1-D2-D3) (UniProt Q9UPY3+Q15633). Nature of the data set: single-molecule TIRF, two-color. The settings on record: amine-modified U69 (dye), 20 mM Tris pH 8.0, 200 mM KCl, 0.2 mM EDTA, glucose oxidase/catalase oxygen scavenger, 1 mM Trolox, 200 pM labelled RNA (200 nM in Methods), Mg2+ where ….

Data set [2] deals with Dicer TN (catalytically inactive), without ectopic TRBP (UniProt Q9UPY3). As to the kind of experiment: single-molecule TIRF. As to conditions: amine-modified U69 (dye), 20 mM Tris pH 8.0, 200 mM KCl, 0.2 mM EDTA, glucose oxidase/catalase oxygen scavenger, 1 mM Trolox, 200 pM labelled RNA (200 nM in Methods), Mg2+ where ….
For data set [3], the target named is T1, Dicer TN (catalytically inactive), without ectopic TRBP;TRBP full length (D1-D2-D3). As to the kind of experiment: single-molecule TIRF. As to conditions: amine-modified U69 (dye), 20 mM Tris pH 8.0, 200 mM KCl, 0.2 mM EDTA, glucose oxidase/catalase oxygen scavenger, 1 mM Trolox, 200 pM labelled RNA (200 nM in Methods), Mg2+ where ….
The next data set concerns the target T2, TRBP recombinant (UniProt Q15633).
T2 sequence: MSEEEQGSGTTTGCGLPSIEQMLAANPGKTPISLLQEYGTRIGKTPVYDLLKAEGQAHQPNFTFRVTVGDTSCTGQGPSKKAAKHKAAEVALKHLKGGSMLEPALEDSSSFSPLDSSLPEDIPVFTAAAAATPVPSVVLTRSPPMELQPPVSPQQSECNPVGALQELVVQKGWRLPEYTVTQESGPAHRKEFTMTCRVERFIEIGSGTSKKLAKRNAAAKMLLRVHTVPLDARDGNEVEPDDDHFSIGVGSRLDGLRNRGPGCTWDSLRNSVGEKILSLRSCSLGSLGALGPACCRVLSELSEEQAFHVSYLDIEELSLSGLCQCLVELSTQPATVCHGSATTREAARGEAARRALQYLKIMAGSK
As to the kind of experiment: single-molecule TIRF. As to conditions: amine-modified U69 (dye), 20 mM Tris pH 8.0, 200 mM KCl, 0.2 mM EDTA, glucose oxidase/catalase oxygen scavenger, 1 mM Trolox, 200 pM labelled RNA (200 nM in Methods), Mg2+ where ….

Data set [4] deals with Dicer TN (catalytically inactive), without ectopic TRBP;TRBP D2-D3 (UniProt Q9UPY3+Q15633). Nature of the data set: single-molecule TIRF competition. The settings on record: 1 uM competitor tRNA; WT or TN form not given; amine-modified U69 (dye); 20 mM Tris pH 8.0, 200 mM KCl, 0.2 mM EDTA, glucose oxidase/catalase oxygen scavenger, 1 mM Trolox; 200 pM labelled RNA (200 nM in Methods); Mg2+ where ….

Data set [5] concerns the target Dicer TN (catalytically inactive), without ectopic TRBP (UniProt Q9UPY3). As to the kind of experiment: single-molecule TIRF competition. The settings on record: 1 uM competitor tRNA; WT or TN form not given; amine-modified U69 (dye); 20 mM Tris pH 8.0, 200 mM KCl, 0.2 mM EDTA, glucose oxidase/catalase oxygen scavenger, 1 mM Trolox; 200 pM labelled RNA (200 nM in Methods); Mg2+ where ….

Data set [6] concerns the target T1, Dicer TN (catalytically inactive), without ectopic TRBP;TRBP full length (D1-D2-D3). As to the kind of experiment: single-molecule TIRF competition. The settings on record: 1 uM competitor tRNA; WT or TN form not given; amine-modified U69 (dye); 20 mM Tris pH 8.0, 200 mM KCl, 0.2 mM EDTA, glucose oxidase/catalase oxygen scavenger, 1 mM Trolox; 200 pM labelled RNA (200 nM in Methods); Mg2+ where ….

Data set [7] addresses Dicer TN (catalytically inactive), without ectopic TRBP;TRBP D3 (UniProt Q9UPY3+Q15633). As to the kind of experiment: single-molecule TIRF competition. The settings on record: 1 uM competitor tRNA; WT or TN form not given; amine-modified U69 (dye); 20 mM Tris pH 8.0, 200 mM KCl, 0.2 mM EDTA, glucose oxidase/catalase oxygen scavenger, 1 mM Trolox; 200 pM labelled RNA (200 nM in Methods); Mg2+ where ….

[8] abbreviates: equivalent IP amount, WT or TN form not given.

In data set [1] (2.9x fewer than N1, 55.6% long, 25.3 +/- 2.9 s, short 3.7 +/- 0.8 s), “UGAGGUAGUAGGUUGUAUAGUUUUAGGGUCACACCCACCACUGGGAGAUAACUAUACAAUCUACUGUCUUUC [pre-let-7a-1 3' 1nt]” returned a binding signal (binding events) of 2750.
Turning to “UGAGGUAGUAGGUUGUAUAGUUUUAGGGUCACACCCACCACUGGGAGAUAACUAUACAAUCUACUGUCUUUCU [pre-let-7a-1 3' 2nt (standard)]”, the binding signal (binding events) in data set [1] (with N2 at equal concentration, 57.7% long binding) worked out at 7410; in data set [1] (with N4, long 19.1 s, short 3.0 +/- 1.05 s, 54.0%), 8050. Also, the binding signal (s (long dwell time)) in data set [1] (with N3, 54.7% long, short 1.4 +/- 0.3 s) stood at 17; in data set [2] (43.1% long, short 2.8 +/- 0.7 s, 56.9%, panel assignment from figure order), 21.9; in data set [3] (48.1% long, short 1.5 +/- 0.4 s, 51.9%), 13.9. The binding signal (bound spots per field) in data set [2] (setting [8]) came out at 58; in data set [3] (setting [8]), 781. Moreover, in the data set with TRBP recombinant (200 pM RNA), the binding signal (s (dwell time)) came to 120. The binding signal (% inhibition of binding) in data set [4] worked out at 29; in data set [5], 77.9; in data set [6], 6.1; in data set [7], 83.
As for “UGAGGUAGUAGGUUGUAUAGUUUUAGGGUCACACCCACCACUGGGAGAUAACUAUACAAUCUACUGUCUUUCU [pre-let-7a-1 3' 2nt-biotin]”, the binding signal (binding events) in data set [1] (3'-biotin) is 2340; in data set [2] (five times more than Dicer-TRBP, 56.7% long, 34.0 +/- 5.6 s, 3'-biotin) it was 1780; in data set [3] (14.2% long, 27.8 +/- 2.2 s, short 3.7 +/- 1.3 s, 85.8%, 3'-biotin), 341. For the same sequence, the binding signal (s (dwell time)) with TRBP recombinant (no noticeable difference from N1, 3'-biotin) stood at 120.
As for “UGAGGUAGUAGGUUGUAUAGUUUUAGGGUCACACCCACCACUGGGAGAUAACUAUACAAUCUACUGUCUUUCUUUUUUUUUUUUUUUUUUUUUUUUUUUUUUUUUUUUUUUUUUUUUUUUU [pre-let-7a-1 3' U49]”, the binding signal (binding events) in data set [1] (2.5x fewer than N1, 31.0% long, 11.0 +/- 2.3 s, short 1.2 +/- 0.2 s) was found to be 2040. Further, the binding signal (s (dwell time)) with TRBP recombinant (no difference from N1) was determined as 120.
